This note sets out measurements from publication PMC3493575, “Elongation Factor 1 alpha1 and Genes Associated with Usher Syndromes Are Downstream Targets of GBX2”.

One series deals with GBX2ΔHD (mouse, UniProt P48031 1-94). Kind of series: EMSA; 940 pM probe, 720 nM GBX2; 2X binding buffer: 20 mM Tris-HCl pH 7.4, 50 mM KCl, 1 mM DTT, 10% glycerol, 200 ug/mL BSA, 2.2 ug/mL poly dI/dC; 30 min, 25 C; 6% native PAGE, Tris-glycine. Conditions: protein: recombinant; tags: V5-6xHis (pET101/D-TOPO); label: 32P end label; blunt. On the technique in general: A gel shift assay detects complexes by their altered migration in electrophoresis.
Sequence of GBX2ΔHD (P48031 1-94, stated change not applied): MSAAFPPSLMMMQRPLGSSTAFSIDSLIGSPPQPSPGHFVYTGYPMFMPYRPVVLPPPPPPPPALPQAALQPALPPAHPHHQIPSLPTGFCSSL

The next series deals with GBX2 full-length (mouse, UniProt P48031 1-348). The experiment in a line: EMSA; supershift with anti-GBX2; 940 pM probe, 720 nM GBX2; 2X binding buffer: 20 mM Tris-HCl pH 7.4, 50 mM KCl, 1 mM DTT, 10% glycerol, 200 ug/mL BSA, 2.2 ug/mL poly dI/dC; 30 min, 25 C; 6% native PAGE, Tris-glycine. Conditions: protein: recombinant; tags: V5-6xHis (pET101/D-TOPO); label: 32P end label; blunt.
Sequence of GBX2 full-length (P48031 whole entry): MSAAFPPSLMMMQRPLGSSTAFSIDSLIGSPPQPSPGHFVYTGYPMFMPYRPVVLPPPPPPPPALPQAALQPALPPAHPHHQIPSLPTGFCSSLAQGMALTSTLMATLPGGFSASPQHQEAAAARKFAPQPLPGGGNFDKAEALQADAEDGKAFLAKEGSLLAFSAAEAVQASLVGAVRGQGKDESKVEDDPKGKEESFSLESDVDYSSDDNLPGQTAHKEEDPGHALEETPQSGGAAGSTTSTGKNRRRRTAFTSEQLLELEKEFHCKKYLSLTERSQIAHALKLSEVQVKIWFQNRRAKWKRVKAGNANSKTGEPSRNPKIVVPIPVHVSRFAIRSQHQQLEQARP

B1: PCDH15 100-mer probe (dsDNA)
DNA 1: TTACAATTTCATTTGTACAGGTAAGTATATACTTTTCTTTCATTGTTTCTTTTTAATATTCCCATTAGTGGGAATTCAGGCTATCTGTCTCTTACCTATC
DNA 2: GATAGGTAAGAGACAGATAGCCTGAATTCCCACTAATGGGAATATTAAAAAGAAACAATGAAAGAAAAGTATATACTTACCTGTACAAATGAAATTGTAA
In the case of B1, the binding result is listed as “no binding” with GBX2ΔHD and “binds” with GBX2 full-length.
